Measured values: article PMC3769224

Assays:
[1] = target: BRAG2^(Sec7-PH 390–811) (human)
[2] = target: BRAG2^(Sec7-PH 390–763) (human)

kcat/Km of GDP/GTP exchange in solution (tryptophan fluorescence kinetics, 37°C, 1 µM Arf) [1] [M⁻¹ s⁻¹] | kcat/Km of GDP/GTP exchange in solution (tryptophan fluorescence kinetics, 37°C, 1 µM Arf) [2] [M⁻¹ s⁻¹] | kcat/Km of GDP/GTP exchange in solution (tryptophan fluorescence kinetics, 37°C, 1 µM Arf) (BRAG2^Sec7 (human)) [M⁻¹ s⁻¹] | Substance
50000 | 50000 | 10000 | Δ13Arf6 (from UniProt P62330 14-175) (domain or fragment)
250000 | 240000 | 20000 | Δ17Arf1 (from UniProt P84077 18-181) (domain or fragment)
